Reference: the supplement of paper PMC10065799, “High-throughput profiling of sequence recognition by tyrosine kinases and SH2 domains using bacterial peptide display” (eLife, 2023)

What was measured:
[1] = target: Grb2 SH2 (UniProt P62993); test: SH2 binding enrichment of the phosphorylated peptide, bacterial display (enrichment ratio); higher = better substrate or ligand; peptides without Tyr show the background
[2] = target: c-Src SH2; test: as above
[3] = target: SHP2-C SH2; test: as above
[4] = target: FGFR1 (UniProt P11362); test: phosphorylation enrichment, bacterial display (enrichment ratio); higher = better substrate or ligand; peptides without Tyr show the background
[5] = target: Hck (UniProt P08631); test: as above
Sequence of Hck (P08631 whole entry, looked up): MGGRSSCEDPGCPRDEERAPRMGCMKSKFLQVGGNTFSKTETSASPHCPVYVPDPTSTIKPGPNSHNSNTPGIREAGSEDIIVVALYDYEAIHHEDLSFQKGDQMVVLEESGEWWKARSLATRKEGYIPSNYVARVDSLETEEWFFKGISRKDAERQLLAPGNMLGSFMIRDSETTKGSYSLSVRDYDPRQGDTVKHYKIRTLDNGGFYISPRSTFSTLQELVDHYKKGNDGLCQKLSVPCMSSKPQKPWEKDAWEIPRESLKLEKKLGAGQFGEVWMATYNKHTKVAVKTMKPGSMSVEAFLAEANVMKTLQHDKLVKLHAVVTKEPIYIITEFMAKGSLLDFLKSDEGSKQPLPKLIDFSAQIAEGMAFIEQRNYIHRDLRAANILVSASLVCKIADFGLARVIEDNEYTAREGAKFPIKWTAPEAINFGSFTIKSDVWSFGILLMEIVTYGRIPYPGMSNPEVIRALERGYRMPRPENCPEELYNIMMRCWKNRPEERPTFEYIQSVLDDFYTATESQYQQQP

[6] = target: Fes (UniProt P07332); test: as above
Sequence of Fes (P07332 whole entry, looked up): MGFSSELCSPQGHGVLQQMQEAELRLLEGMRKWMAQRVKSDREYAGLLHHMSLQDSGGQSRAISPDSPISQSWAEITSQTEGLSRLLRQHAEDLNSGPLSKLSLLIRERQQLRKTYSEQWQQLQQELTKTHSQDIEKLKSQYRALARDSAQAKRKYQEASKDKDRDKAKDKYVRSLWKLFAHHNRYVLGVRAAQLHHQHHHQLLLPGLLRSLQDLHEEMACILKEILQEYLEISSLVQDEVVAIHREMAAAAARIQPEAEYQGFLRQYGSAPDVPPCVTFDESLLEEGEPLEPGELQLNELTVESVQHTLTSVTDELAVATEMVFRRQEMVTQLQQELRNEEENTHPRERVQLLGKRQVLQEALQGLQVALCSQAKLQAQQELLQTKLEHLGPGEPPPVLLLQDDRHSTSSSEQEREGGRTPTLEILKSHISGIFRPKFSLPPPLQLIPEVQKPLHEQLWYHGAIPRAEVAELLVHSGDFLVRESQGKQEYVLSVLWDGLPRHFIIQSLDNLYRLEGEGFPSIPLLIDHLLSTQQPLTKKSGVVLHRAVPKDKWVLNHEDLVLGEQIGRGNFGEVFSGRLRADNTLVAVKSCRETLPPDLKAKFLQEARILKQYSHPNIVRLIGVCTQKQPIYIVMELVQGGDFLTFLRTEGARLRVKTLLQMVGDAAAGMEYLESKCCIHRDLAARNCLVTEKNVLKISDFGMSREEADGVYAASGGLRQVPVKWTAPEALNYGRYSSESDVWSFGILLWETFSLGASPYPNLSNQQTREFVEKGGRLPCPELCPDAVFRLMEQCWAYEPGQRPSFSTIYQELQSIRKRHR

[7] = target: Fyn (UniProt P06241); test: as above
Sequence of Fyn (P06241 whole entry, looked up): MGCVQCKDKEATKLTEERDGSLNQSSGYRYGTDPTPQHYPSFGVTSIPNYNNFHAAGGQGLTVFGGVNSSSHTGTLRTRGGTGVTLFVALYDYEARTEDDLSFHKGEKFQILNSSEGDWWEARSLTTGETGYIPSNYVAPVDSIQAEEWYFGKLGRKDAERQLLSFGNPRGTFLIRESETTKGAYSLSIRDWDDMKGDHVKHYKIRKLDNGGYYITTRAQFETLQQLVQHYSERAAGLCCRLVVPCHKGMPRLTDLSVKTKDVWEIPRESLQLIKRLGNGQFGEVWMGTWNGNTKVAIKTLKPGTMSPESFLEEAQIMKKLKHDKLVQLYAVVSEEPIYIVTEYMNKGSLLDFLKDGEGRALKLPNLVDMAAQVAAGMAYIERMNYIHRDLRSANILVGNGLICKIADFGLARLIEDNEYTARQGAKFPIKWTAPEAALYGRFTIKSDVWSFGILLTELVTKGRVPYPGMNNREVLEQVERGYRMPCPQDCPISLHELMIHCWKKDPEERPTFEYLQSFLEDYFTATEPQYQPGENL

[8] = test system: c-Abl (mouse); test: as above
[9] = target: Jak2 (UniProt O60674); test: as above
Sequence of Jak2 (O60674 whole entry, looked up): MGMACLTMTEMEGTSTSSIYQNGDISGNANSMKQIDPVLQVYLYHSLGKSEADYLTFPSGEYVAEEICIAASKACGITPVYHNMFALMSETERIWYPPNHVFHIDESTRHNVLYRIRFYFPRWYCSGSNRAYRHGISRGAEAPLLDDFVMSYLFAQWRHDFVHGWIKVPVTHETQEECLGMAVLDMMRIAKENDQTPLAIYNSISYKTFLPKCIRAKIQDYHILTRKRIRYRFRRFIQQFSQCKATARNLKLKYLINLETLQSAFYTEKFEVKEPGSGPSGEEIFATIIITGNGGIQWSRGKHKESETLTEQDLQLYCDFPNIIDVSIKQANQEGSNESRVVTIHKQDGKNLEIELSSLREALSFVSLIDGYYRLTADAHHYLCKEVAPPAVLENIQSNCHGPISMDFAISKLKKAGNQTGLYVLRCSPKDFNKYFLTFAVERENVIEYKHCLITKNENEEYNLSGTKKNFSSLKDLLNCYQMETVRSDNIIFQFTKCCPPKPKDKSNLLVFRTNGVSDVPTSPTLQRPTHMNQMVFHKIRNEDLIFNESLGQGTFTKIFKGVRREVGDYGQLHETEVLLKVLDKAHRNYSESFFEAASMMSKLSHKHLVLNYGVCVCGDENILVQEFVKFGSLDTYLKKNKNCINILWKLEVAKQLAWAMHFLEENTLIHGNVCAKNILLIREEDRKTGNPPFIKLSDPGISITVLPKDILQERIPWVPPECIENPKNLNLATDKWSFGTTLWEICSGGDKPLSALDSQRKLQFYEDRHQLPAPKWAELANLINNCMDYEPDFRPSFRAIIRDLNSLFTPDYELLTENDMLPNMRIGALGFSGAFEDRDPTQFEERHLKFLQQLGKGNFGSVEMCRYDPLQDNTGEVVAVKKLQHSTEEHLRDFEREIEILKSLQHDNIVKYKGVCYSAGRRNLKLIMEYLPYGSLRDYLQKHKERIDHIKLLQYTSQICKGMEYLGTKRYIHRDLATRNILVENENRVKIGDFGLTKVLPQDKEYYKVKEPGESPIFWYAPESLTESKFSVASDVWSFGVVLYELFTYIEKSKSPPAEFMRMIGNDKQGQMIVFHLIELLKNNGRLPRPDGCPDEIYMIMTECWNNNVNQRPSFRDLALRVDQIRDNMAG

[10] = test system: c-Src; test: as above
[11] = test system: Fer (mouse); test: as above
[12] = target: EPHB1 (UniProt P54762); test: as above
Sequence of EPHB1 (P54762 whole entry, looked up): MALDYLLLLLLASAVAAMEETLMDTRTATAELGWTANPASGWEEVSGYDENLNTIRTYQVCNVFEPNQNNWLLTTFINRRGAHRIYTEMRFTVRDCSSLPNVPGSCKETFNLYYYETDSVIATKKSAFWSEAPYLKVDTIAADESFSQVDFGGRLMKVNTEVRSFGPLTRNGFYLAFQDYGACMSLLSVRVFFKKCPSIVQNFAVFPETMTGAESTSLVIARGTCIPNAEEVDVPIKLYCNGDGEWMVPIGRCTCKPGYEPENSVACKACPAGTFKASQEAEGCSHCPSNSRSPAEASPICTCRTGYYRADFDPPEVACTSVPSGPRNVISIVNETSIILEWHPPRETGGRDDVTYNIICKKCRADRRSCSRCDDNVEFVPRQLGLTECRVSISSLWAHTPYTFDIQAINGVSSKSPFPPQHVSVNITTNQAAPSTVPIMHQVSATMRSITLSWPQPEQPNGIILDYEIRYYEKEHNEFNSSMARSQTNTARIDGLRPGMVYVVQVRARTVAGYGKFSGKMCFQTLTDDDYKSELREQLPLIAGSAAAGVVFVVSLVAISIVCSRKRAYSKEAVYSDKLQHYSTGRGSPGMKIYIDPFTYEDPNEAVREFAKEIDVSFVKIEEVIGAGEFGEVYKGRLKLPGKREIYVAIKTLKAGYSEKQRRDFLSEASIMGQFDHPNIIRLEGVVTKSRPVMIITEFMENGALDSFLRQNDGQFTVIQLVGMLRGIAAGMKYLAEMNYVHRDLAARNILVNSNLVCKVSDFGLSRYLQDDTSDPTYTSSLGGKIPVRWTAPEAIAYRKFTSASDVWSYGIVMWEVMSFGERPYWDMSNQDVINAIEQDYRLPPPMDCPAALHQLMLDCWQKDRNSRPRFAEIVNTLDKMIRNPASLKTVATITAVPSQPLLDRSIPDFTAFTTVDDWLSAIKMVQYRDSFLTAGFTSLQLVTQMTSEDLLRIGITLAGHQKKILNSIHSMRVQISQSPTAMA

[13] = target: FGFR3 (UniProt P22607); test: as above
Sequence of FGFR3 (P22607 whole entry, looked up): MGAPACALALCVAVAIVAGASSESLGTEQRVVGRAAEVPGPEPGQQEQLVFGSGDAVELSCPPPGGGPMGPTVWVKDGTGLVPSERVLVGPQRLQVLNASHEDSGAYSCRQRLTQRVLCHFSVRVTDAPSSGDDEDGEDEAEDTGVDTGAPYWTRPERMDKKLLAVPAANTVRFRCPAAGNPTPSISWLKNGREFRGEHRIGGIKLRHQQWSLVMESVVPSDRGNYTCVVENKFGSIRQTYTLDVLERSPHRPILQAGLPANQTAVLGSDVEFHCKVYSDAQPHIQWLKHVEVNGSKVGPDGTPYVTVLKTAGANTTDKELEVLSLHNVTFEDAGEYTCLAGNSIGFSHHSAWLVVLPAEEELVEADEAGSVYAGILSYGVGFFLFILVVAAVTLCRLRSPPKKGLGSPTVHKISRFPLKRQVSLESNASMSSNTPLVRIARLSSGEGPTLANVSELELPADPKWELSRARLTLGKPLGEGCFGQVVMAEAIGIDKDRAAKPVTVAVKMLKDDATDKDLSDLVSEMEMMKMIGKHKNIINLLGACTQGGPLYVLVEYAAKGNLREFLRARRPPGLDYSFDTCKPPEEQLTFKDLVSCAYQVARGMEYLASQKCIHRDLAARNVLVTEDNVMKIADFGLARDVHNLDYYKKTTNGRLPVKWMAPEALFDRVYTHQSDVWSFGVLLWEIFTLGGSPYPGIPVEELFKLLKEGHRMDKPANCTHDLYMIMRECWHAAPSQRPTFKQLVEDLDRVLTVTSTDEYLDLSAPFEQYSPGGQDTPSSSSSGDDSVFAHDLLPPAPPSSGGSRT

[14] = target: EPHB2 (UniProt P29323); test: as above
[15] = target: MERTK (UniProt Q12866); test: as above
[16] = test system: AncSZ; test: as above
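Throughout, for SH2 binding enrichment of the phosphorylated peptide, bacterial display: peptide library displayed on the E. coli surface as eCPX fusions, selected cells deep-sequenced, score is each peptide's frequency after selection divided by its frequency in the input.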
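Throughout, for phosphorylation enrichment, bacterial display: 11-residue human phosphosite peptides and single-mutation variants displayed on the E. coli surface, counted by deep sequencing, each peptide's frequency after selection divided by its frequency in the unselected input library; frequency after pTyr selection over input frequency; kinase dosed for 20-30% of maximal phosphorylation in three min.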

SH2 binding enrichment [1]	SH2 binding enrichment [2]	SH2 binding enrichment [3]	Sequence	phosphorylation enrichment [4]	phosphorylation enrichment [5]	phosphorylation enrichment [6]	phosphorylation enrichment [7]	phosphorylation enrichment [8]	phosphorylation enrichment [9]	phosphorylation enrichment [10]	phosphorylation enrichment [11]	phosphorylation enrichment [12]	phosphorylation enrichment [13]	phosphorylation enrichment [14]	phosphorylation enrichment [15]	phosphorylation enrichment [16]
0.714	0.469	0.545	APGDAYGDAGF [SYP_Y250_YF]	0.484	0.566	0.905	0.494	0.565	0.8	0.464	0.491	0.514	0.521	0.548	0.426	0.938
0.883	0.469	0.639	APGNAYGDAGF [SYP_Y250_D248N_YF]	0.373	0.433	0.504	0.339	0.443	0.52	0.322	0.369	0.351	0.412	0.313	0.348	0.527
1.49	0.908	1.43	AQMAMYFWEMG [TRPM4_Y577]	3.25	1.36	1.45	1.1	1.11	1.37	2.62	0.682	0.995	3.09	0.914	2.67	1.38
1.05	0.485	0.707	AQVDTYCRHNY [HLA-DRB1_Y107_A103Q]	0.512	0.523	0.866	0.549	0.693	0.764	0.369	0.517	0.536	0.679	0.47	0.447	0.752
0.887	0.505	1.33	ARMTNYGLPRF [TSPAN12_Y138_YF]	0.42	0.413	0.636	0.401	0.496	0.503	0.519	0.409	0.424	0.501	0.542	0.511	0.547
0.702	0.481	0.391	ASKEPYYVRCI [MYO1D_Y585]	0.686	0.464	1.17	0.521	1.19	1.21	0.595	0.557	0.877	0.813	0.802	0.618	1.35
0.635	0.385	0.638	ASPKSYPSQKH [CAP2_Y316_T311A]	0.356	0.333	0.511	0.374	0.484	0.464	0.366	0.323	0.358	0.406	0.276	0.356	0.426
0.954	0.446	0.512	ASTDYNKRGDF [PDHA1_Y243_Y243N]	0.421	0.332	0.599	0.456	0.469	0.468	0.47	0.378	0.348	0.402	0.474	0.405	0.502
0.86	2.89	6.64	ASYGPYTRVQS [FOXL2_Y258]	0.422	0.793	0.623	0.673	0.464	0.539	0.559	0.438	0.415	0.427	0.583	0.376	0.551
0.836	0.494	0.598	ATAKGYEPDAS [OTC_Y223_P220A]	0.481	0.483	0.784	0.441	0.598	0.684	0.461	0.473	0.523	0.549	0.523	0.416	0.883
1.08	1.58	3.3	ATDLAYYLVRE [ASL_Y375_K380E]	8.49	1.01	0.909	0.929	0.527	2.38	1.46	0.43	0.675	6.9	0.476	1.23	1.21
0.899	0.535	0.736	ATVLNYLPKCI [A2M_Y817]	0.519	0.599	0.987	0.437	0.714	0.858	0.385	0.438	0.662	0.649	0.542	0.392	0.747
0.965	0.518	0.745	AVNNFYAAKKT [CCDC178_Y422_D420N]	0.52	0.428	0.58	0.372	0.542	0.566	0.463	0.369	0.373	0.402	0.352	0.475	0.708
0.818	0.415	0.643	AVPSLYASGRT [ACTA1_Y145_L142P]	0.405	1.74	0.57	0.393	0.538	0.523	0.451	0.451	0.452	0.434	0.433	0.473	0.65
0.849	0.6	0.76	AVSHRYDLGGL [QPRT_Y162_A158V]	0.347	0.415	0.527	0.337	0.379	0.467	0.385	0.344	0.403	0.42	0.524	0.379	0.515
1.57	1.34	1.41	CKLFQYFLDHL [ATRX_Y1849_YF]	0.647	0.585	1.41	0.536	0.933	1.3	0.524	0.635	0.693	0.873	0.605	0.526	1.37
